Assay results from paper PMC7466717, “PPARγ Transcription Deficiency Exacerbates High-Fat Diet-Induced Adipocyte Hypertrophy and Insulin Resistance in Mice” (Frontiers in Pharmacology, 2020).
Ends that are not written are not given here.

T1: H6-PPARγ CDE wild-type (human PPARγ, domains from DBD to the C-terminus, residues 103–477) (human, UniProt P37231-2 103-477)
T1 construct: Human PPARγ, CDE domains (DBD, hinge, LBD to the C-terminus), residues 103-477; a C-terminus at 477 fits the 477-residue PPARγ1 isoform; Expressed from pET24a as an N-terminal 6xHis fusion; also called H6-PPARγ CDE WT; PPARγ CDE WT; source: E. coli BL21(DE3), purified (Ni HiTrap HP, SP-Sepharose); not shown: His6, N-terminal, kept
T1 sequence (looked up): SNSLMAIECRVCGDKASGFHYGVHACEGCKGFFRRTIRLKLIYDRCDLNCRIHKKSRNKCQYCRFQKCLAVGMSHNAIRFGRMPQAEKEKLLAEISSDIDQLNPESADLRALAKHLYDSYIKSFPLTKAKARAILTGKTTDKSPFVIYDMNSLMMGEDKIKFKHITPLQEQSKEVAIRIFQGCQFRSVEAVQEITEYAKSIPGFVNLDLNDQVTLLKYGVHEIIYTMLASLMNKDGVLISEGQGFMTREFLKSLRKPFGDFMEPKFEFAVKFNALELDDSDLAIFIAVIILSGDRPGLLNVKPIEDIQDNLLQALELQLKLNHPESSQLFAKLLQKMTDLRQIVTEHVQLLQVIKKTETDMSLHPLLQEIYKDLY


Biological target: T1, H6-PPARγ CDE wild-type (human PPARγ, …)
Test: AlphaScreen or HTRF; 100 nM H6-PPARγ CDE, 100 nM biotin-labeled peptide, gradient doses of rosiglitazone; hexahistidine detection kit (Perkin-Elmer); 50 mmol/L MOPS, 50 mmol/L NaF, 0.05 mmol/L CHAPS, 0.1 mg/ml bovine serum albumin, pH 7.4
Conditions: both partners purified

Binding result, binds:
QEPVSPKKKENALLRYLLDKDDTKD (also: biotin label, position not given here) [biotin-labeled SRC2-3 coactivator peptide]
SPSSHSSLTERHKILHRLLQEGSP (also: biotin label, position not given here) [biotin-labeled SRC1-2 coactivator peptide]
GHSFADPASNLGLEDIIRKALMGSF (also: biotin label, position not given here, not the gene NCOR2/SMRT) [biotin-labeled NCoR-2 corepressor peptide]
